Assay: yeast display, Sf9 membrane polyspecificity reagent, FACS + sequencing; frameworks hold sequencing errors
Method in brief: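 Nanobodies came from a synthetic yeast display library in Saccharomyces cerevisiae BJ5465, induced with galactose for 36–48 hours and stained for 1 hour at 4 °C with 10% biotinylated, detergent-solubilized Sf9 membrane reagent. Cells were enriched on streptavidin microbeads and then FACS-sorted, with low and high (top ~1%) gates set on anti-HA fluorescence for expression and streptavidin fluorescence for reagent binding. Each polyreactivity label reflects the gate a clone came from. Genes were amplified by colony PCR, sequenced by MiSeq 2 × 250 and filtered by CDR length.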

| Sequence | polyreactivity (PSR sort gate) |
| --- | --- |
| QVQHVESGGGLVQAGGSLRLSCAATGRIFKYYARGWYTQAPGKERELVAAISSTGGRTYYADSVKGRFTNSRDNAKNTVYLQMNSLKPEDTAVFSCAADYAWGDPGRARFGYWGQGTQVTVSS | high polyreactivity |
| QVQHVESGGGLVQAGGSLRLSCAAYGSIFVYYAMGWYRKAPGKERDLFAAISSSGDTTYYADSVKGRYTISRDNAKNTVYLQMNSLKPEDTAVYYCAARVRVYRHASNYYWGQCTQVTVSS | high polyreactivity |
| QVQHVESGGGLVQAGGSLRLSCASSGRTFYEYAMGWYRQAPGKERELVAGITSGGSTNYADSVKGRFTISRDNAKNTVYLQMNSLKPEDTAVYYCAASYWGYEYDYWGQGTQVTVSS | low polyreactivity |
| QVQHVESGGGLVQAGGSLRLSCDASGRIFAKYAMGWYRQAHGKERELVAGISWGGGSTYYADSVKGRFTISRDNAKNTVYLQMNSLKPEDTAVYYCAARIPKQRDVRGSGMNYWGQGTQVTVSS | high polyreactivity |
| QVQHVESGGGLVQAGGSLRLSCGASGITLYGYAMGWYRQAPGKEREFVAAISRSGDRTYYADSVKGRFTISRDNAKNTVYLQMNSLKPEDTAVYYCNAWRYDYWGQGTQVTVSS | high polyreactivity |
| QVQHVESGGGLVQAGGSLRLSGAASGSTFPTIAMGWNRQAPGKEREWVADITIRAGGTSYADSVKGRFTISRDNAKNSVYLQMNSLKPQDTAVFYCARSKSSELKRLLYDSWGEGTQVTVSS | low polyreactivity |
| QVQHVESGGGLVQAGGSLRLSSAASGSIFTFYAMGWSRQAPGKEMELVADITGRGSRTYYADSVTGRFTISRDNAKNTVYLKMNSLKPEDTAVYYCAAGHDRYYQSEYGYWGQGTQVTVSS | high polyreactivity |
| QVQHVESGGGLVQAGGSLRLTCAASGRIYASNSKGWYRQETGKERELFATSRVGGGSTYYADSVKGRFTISRDNAKNTVYLQRNSLKQEDTAVYYWAASFRDDFPQRLDFWGQGTQVTVSS | low polyreactivity |
| QVQHVESGGGLVQAGGSLRLTCAASGSTSPTNVMGWYRQAPGKERELVAAISYSGGRTYYADSVKGRFTISRDNAKKTVYLQMNSLKPEDTAVYYCAARSLKRKYESWGQGTQVTVSS | high polyreactivity |
| QVQHVESGGGLVQAGGSLSLSCAASGFIFSAYAMGWYRRAAGKERKLVDAITRSGGITDYADSVKGRFTISRDIAKNTVYLQMNSLKPEDTADYYCAALRVQQVKSYYYWGQGTQVTVSW | high polyreactivity |
| QVQHVESGGGLVQAGGSRRLTCAASGYTFYKYAMGWYRQAPGKERELVAAISSSGGSTYYADSVKGRFTISRDNAKNTGYLHMNSLKPVDTAVYYCAAFVYSNDYDYWGQGTQVTVSS | high polyreactivity |
| QVQHVESGGGLVQAGRSLRLICAASGRNSKGYAMAWDRQAPGKERELVAAYADSVKGRFTIARDNAKNTVYLQMNSLKPEDTAVYYCNADYDQVSRVGYVYWAYYYWGQGTQVTVSS | low polyreactivity |
| QVQHVESGGGLVQAGRSLRLSCAASGFTIVQYAMGWYRQAPGKERELVARISPIGGSTYYADSVKGRFTISRDNAKNTVYLQMNSLKPEDTAVYYCNALRGPVKYYYWGQGTQVTVSS | low polyreactivity |
| QVQHVESGGGLVQAGRSLRLSCAASGLIYPYVMGWYRQAPGKERELVAAISRSGGRTYYADSVKGRFTISRDNAKNTVYLQMNSLKPEDTAVYYCAAKVDVTGYFDYWGQGTQVTVSS | high polyreactivity |
| QVQHVESGGGLVQAGVSLRLSCAASGFTFGSNAMGRYRPAPGKERELVAAINYSGVRTYYADSVKGRFTISRDNAKNTVYLQMNSLKPEDTAVYYCAKQRSKPNSFDYWGQGTQVTVSS | high polyreactivity |
| QVQHVESGGGLVQARGSLRLSCAASGSTIKHYGMGWYRHAPGKERELVAAITSGGRTYYADSVKGRFTISRDNAKNTVYLQMNSLKQDDSAGYYCAALRVQQVKSYYYWGQGTQVTVSS | high polyreactivity |
| QVQHVESGGGLVQEGGSLRVSCAASGSIFGTNDMGWYRQAPGKERELVAAISSSGASTYYADSVKGRFTISRDNAKNTVYLQMNSLKPEDTAVYYCARGYTYQYSSFYYWGQGTQVTVSS | low polyreactivity |
| QVQHVESGRGLVQAGGSLRLSCAASGFIFRLYAMGWYRQAPGKERELVAAISRGGSTTYADSVKGRFTISRDNAKNTVYLQMYSLKPEDTAVYYCATEGDLVAYLYDYWGQGTQVTVSS | low polyreactivity |
| QVQHVESGVGLVQAGGSLRLSSAASGRTFSDNAMGWYRQAPGNERELVAAISRSGGRTYYADSVKGRFTISRDNAKNTVYLQMNSLKPEDTAVYYCAAAPSVSGTRLYEYWGQGTQVTVSS | high polyreactivity |
| QVQHVESRGGLVQAGGSLRLICAASGFILYYYAMGWYRQAPGKVREMVASISRRGGSTYYADSVKGRFTISRDNAKNTVYLQMNSLKPEDTAVYYCAATETTSRRFGYDYWGQGTQVTVSS | high polyreactivity |
| QVQHVESRGGLVQAGGSLRLICAASGFTFSSYAMGWYRQAPGKERELVASISWRGGIPYYADSVKGRFTISRDNAKNTVDLQMISLKPEDTAVYYCAAVPSYHSTSPFYYWGQGTQVTVSS | high polyreactivity |

| Sequence | polyreactivity (PSR sort gate) |
| --- | --- |
| QVQHVESRGGLVQAGGSLRLSCAASGITLPKYAMGCYRQAPGKERELAAAISRRGGITYYADSVKGRFTISRDNAKNSVYLQMNSQKPEDTAVYYCAADRTDTRGFDYWGQGTQVTVSS | high polyreactivity |
| QVQHVESRGGLVQARGSLRLSCAASGRIFSPYAMGWYRQAPGKERELVAAITWSGGSTYYADSVKGRFTISRDNAMNTVYLQMNSLKQEDTAVYYCAADFYRRYYAWEYYYWGQGTQVTVSS | high polyreactivity |
| QVQHVESVGCLVQAAGSLPLSCAASGSTFSSYAMGWYRQAPGKERELVAAISTSGGSTYYADSVKGRFTISRDNAKNTVYLQMNSLKQEDTAVYYCYAGPSYYPFFWPDFEYWVQGTQVTVSS | high polyreactivity |
| QVQHVESVGGLVQAGGSLPLSGASSGFIFRKNAMGWYRQATGKEREFVAAISRRGGCTYYADSVKGRFTISRDNAKNTVYLQMNSLKPEDTAVYYCNAELYDVGSHEYDYWVQGTQVTVSS | high polyreactivity |
| QVQHVESVGGLVQAGGSLRLSCAASGFTFYGYAMGWYRHATGKERELVPAISQSGGSTTYADSVKGRFTISRDKAKNTVYVQMNSLKPEDTAVYYCAARYPYYWWRHVYGDVEYDFWGQGTQGTVSS | high polyreactivity |
| QVQHVESVGGLVQAGGSLRLSCAASGLIFLYNAMGWYRQAPGKVRELVAAITSSGGSTYYADSVKGRLTISRDYAKNTVYLQMNSLKPEDTAVYYCANRYQSYYYSHWGYRYYWGQGTQVTVSS | high polyreactivity |
| QVQHVESVGGLVQAGGSLRLSCAASGRTFGCYTMGWYRHATGTERELVAGISSSGGSTYYADSVKGRFTISRDNAKNTVYLQMNSLKPEDTAVYYCARETYPHGLYYRPYDYWGQGTQVTVSS | low polyreactivity |
| QVQHVESVGGLVQARGSLRLSCAASGSIFDLYAMGWYRQAPGKERELVAGISYSGGSTYYADSVKGRFTISRDNAKNTVYLQMNSLKPEETAVYYCATAYYYHGGYYYPYDDYWGQGTQVTVSS | low polyreactivity |
| QVQHVESVGRLVQAGGSLLLSCAASGSTFWIYAMGWKRQAPVKERELVAAISWRGGRTYYADSVKGRFTISRDNAKNTVYLQMYSLKPEDTGVYYCNAQKRDVSMGYWGLGTQVTVSS | high polyreactivity |
| QVQHVESVRGLVQAGGSLRLSCDASGIIFYSYAMGWYRQAPGKERELVARISTRGGSTYYADSVKGRFTISRDNAKNTVYLQMNSLKPEDTAVYYCAARYSRYIRFPYDYWGQGTQVTVSS | high polyreactivity |
| QVQHVETGGGLVQAGGSLRLSCAASGFIFAEYAMGWYRQAPGKETEEVAAITSGGSTSYADSVKGRFTISRDNAKNTVYLQMNSLKPEDTAVYYCAATWYYLYNVWKHWYEYGYWGQGTQVTVSS | low polyreactivity |
| QVQHVETGGGLVQAGGSLRLSCAASGIFGYNAMGGYRQAPAKERELVAGITKSGARTYYADSVKGRFTISRDNAKNTVYLQMNSLKPEDTAVYYCKAVGKRFYNDDYWGQGTQVTVSS | high polyreactivity |
| QVQHVQSGGGLVQAGGRHRLSCAASGSTIRYYAMGWYRQAPGTERELVAAISGSGGRTYYADSVKGRFTISRDNAKNTGYLQMNSLKPEDTAVYYCYTRGRRTDNDYWGQGTQLTVSS | high polyreactivity |
| QVQHVQSGGGLVQAGGSLRLSCAASGRTNPFYAMGWYRQAPGKERELVAAISSSAGRTYYADSVKGRFTISRDNAKNTFYFEMNSLKPEDTAVYYCAARLYGRYRYDYWGQGTQVTVSS | low polyreactivity |
| QVQIEESGGGLVQERGSLRLSCAAYGRIFDLYAMGWNRQAPGKERELVATISGSGGSTYYADSVKGRFTISRDTAKNTVYLQMNSLKPEDTAVYNCAAVSVSSWYDYWGQGTQVTVSS | low polyreactivity |
| QVQIVDSGGGLVQAGGRLRLTCAASGSTFYVYTMGWSRQAPGKESELFDRISSGGSTKYADSVKGRFTISRVNANNTVYLQMNILKPEDTAVYYCNADGLYLFGISYGKFLKYGHWGHGTQVTVSS | low polyreactivity |
| QVQIVDSGGGLVQAGGSLRLSCAASGNIFAWYAMGWYTQAPGQVRELVAAINWSRGSTYYADSVKGRFTISRDNAKNTVYLQMNSLKPEDTAVYYCNAVFQDRTDDYDYWGQGTQVTLSS | low polyreactivity |
| QVQIVDSGGGVVQAGGILRLSSAASGYTFGSYDMGWYRQEPGKERELVAAISGGGSTNYADSVKGRFTISRDNAKNTVYLQMNCLKPEDTAVYYCAAYPYLYPLRFEEYDHWGQGTQVTVSS | low polyreactivity |
| QVQIVDSGVGLVQAGGSLRLSCAASGSTFLKNAMGWYRQAPGKERELVAAISYSTTPTYYADSVKGRFTFSRDNAKNTVYLQMNSLKPEDNAVYYCNIASYWGSGFDFWGLGTQVTVSS | low polyreactivity |
| QVQIVESGAGIVQAGGSLRLSCAASGFIFDIYAMGWYRQAPGKERELVASITWDDGSTYYADSVKGRFTISRDNAKNTVYLQINSLKPEDTAVYYCAADFEAGGYSLDYWGQGTQVTVSS | low polyreactivity |

From the nanobody polyreactivity screen of Harvey et al. (2022)
